Assay results reported in article PMC11840923, “Kinetic and Thermodynamic Characterization of Human 4-Oxo-L-proline Reductase Catalysis” (Biochemistry, 2025).

Substrate: O=C1CN[C@H](C(=O)O)C1
Assay: purified protein
Type: biochemical, Homo sapiens
Conditions: NADH binds the HsBDH2:NADH complex; receives the pro-S hydrogen from NADH

B1: 4-oxo-L-proline reductase (HsBDH2) (Homo sapiens) (protein)
chain: MGRLDGKVIILTAAAQGIGQAAALAFAREGAKVIATDINESKLQELEKYPGIQTRVLDVTKKKQIDQFANEVERLDVLFNVAGFVHHGTVLDCEEKDWDFSMNLNVRSMYLMIKAFLPKMLAQKSGNIINMSSVASSVKGVVNRCVYSTTKAAVIGLTKSVAADFIQQGIRCNCVCPGTVDTPSLQERIQARGNPEEARNDFLKRQKTGRFATAEEIAMLCVYLASDESAYVTGNPVIIDGGWSL
  Km: 176 µM
